According to US20110165660A1, “ENGINEERED MICROORGANISMS WITH ENHANCED FERMENTATION ACTIVITY” (VERDEZYNE, INC., priority 2009, published 2011):

Test system: xylose isomerase activity
Test: Heterologous xylose isomerase expression in engineered yeast (active yes/no)
Conditions: xylose isomerase of the donor organism expressed in engineered yeast (S. cerevisiae)

Streptomyces rubiginosus: xylose isomerase of this donor organism expressed in S. cerevisiae
Active? (yes/no): No

Bacteroides thetaiotaomicron: xylose isomerase of this donor organism expressed in S. cerevisiae
Active? (yes/no): Yes

Actinoplanes missouriensis: xylose isomerase of this donor organism expressed in S. cerevisiae
Active? (yes/no): No

Streptomyces diastaticus subsp diastaticus: xylose isomerase of this donor organism expressed in S. cerevisiae
Active? (yes/no): No

Thermus thermophilus: xylose isomerase (Type 1) of this donor organism expressed in S. cerevisiae
Active? (yes/no): Yes

B1: Escherichia coli: xylose isomerase of this donor organism expressed in S. cerevisiae (protein, UniProt P00944 1-440, looked up)
Xylose isomerase: MQAYFDQLDRVRYEGSKSSNPLAFRHYNPDELVLGKRMEEHLRFAACYWHTFCWNGADMFGVGAFNRPWQQPGEALALAKRKADVAFEFFHKLHVPFYCFHDVDVSPEGASLKEYINNFAQMVDVLAGKQEESGVKLLWGTANCFTNPRYGAGAATNPDPEVFSWAATQVVTAMEATHKLGGENYVLWGGREGYETLLNTDLRQEREQLGRFMQMVVEHKHKIGFQGTLLIEPKPQEPTKHQYDYDAATVYGFLKQFGLEKEIKLNIEANHATLAGHSFHHEIATAIALGLFGSVDANRGDAQLGWDTDQFPNSVEENALVMYEILKAGGFTTGGLNFDAKVRRQSTDKYDLFYGHIGAMDTMALALKIAARMIEDGELDKRIAQRYSGWNSELGQQILKGQMSLADLAKYAQEHHLSPVHQSGRQEQLENLVNHYLFDK
Active? (yes/no): No

B2: Psudomonas savastanoi: xylose isomerase of this donor organism expressed in S. cerevisiae (protein, UniProt Q48J73 1-438, looked up)
Xylose isomerase: MPYFPAVDKVRYEGPDSDSPLAFRHYDADKLILGKPMREHLRMAACYWHTFVWPGADMFGVGTFKRPWQGSGDPLELAIGKAETAFEFFSKLGIDYYSFHDTDVAPEGSSLKEYRNNFAQMIDQLERHQEQTGIKLLWGTANCFSNPRFAAGAASNPDPEVFAYAATQVFSAMNATQRLKGANYVLWGGREGYETLLNTDLRQEREQLGRFMRMVVEHKHKIGFKGDLLIEPKPQEPTKHQYDYDSATVFGFLQQYGLEKEIKVNIEANHATLAGHSFHHEIATAVSLGIFGSIDANRGDPQNGWDTDQFPNSVEEMTLATYEILKAGGFTNGGYNFDSKVRRQSLDEVDLFHGHVAAMDVLALALERAAAMVQNDKLQQFKDQRYAGWQQPFGKSLLAGEFSLESLAKHAFDKDLNPQAVSGRQELLEGVVNRFIYF
modifications: expressed in S. cerevisiae
Active? (yes/no): No

B3: Staphylococcus xylosus: xylose isomerase of this donor organism expressed in S. cerevisiae (protein, UniProt P27157 1-439, looked up)
Xylose isomerase: MSYFDINKVNYEGPKSNNAFSFKYYNPEEKLGNHSMSELLRFSVAYWHTFTADLSDPFGVGVAERDWDSLDEMEKAKARVEAIFEFMEKTRIDYFCFHDVDISPEGASLKESNENLDIIVELIKEKMDQTGKKLLWNTTNNFTHERFVHGAATSSNAEVFAYAAAKVKKSLEIAKKLGSENFVFWGGREGYESLLNTNMKLELDNLATFFKMAKSYADEIGYTGQFLIEPKPKEPTTHQYDTDVATAHAFLQKYDLDKDFKFNIEANHATLAGHTFQHELRYARDNNMLGSVDANQGHPLLGWDTDESTDVYDTTLAMYEILKNGGLAPGGLNFDAKPRRTSFKQEDLILTHIAGMDTFALGLRVAYKMIEDNFFENIMDEKYKSFNEGIGKKIVEGETSLKELEDYAFNINTINNTSDHLEVIKSQINQYILNINNKD
Active? (yes/no): No

B4: Arabidopsis thaliana: xylose isomerase of this donor organism expressed in S. cerevisiae (protein, UniProt Q9FKK7 1-477, looked up)
Xylose isomerase: MKKVEFFMLLLCFIAASSLVSADPPTCPADLGGKCSDSDDWQGDFFPEIPKIKYEGPSSKNPLAYRWYNAEEEILGKKMKDWFRFSVAFWHTFRGTGGDPFGAATKYWPWEDGTNSVSMAKRRMRANFEFLKKLGVDWWCFHDRDIAPDGTTLEESNKNLDEVIELAKELQKGSKIKPLWGTAQLFLHPRYMHGGATSSEVGVYAYAAAQVKKAMEVTHYLGGENYVFWGGREGYQTLLNTDMGRELDHLARFFEAAVAYKKKIGFKGTLLIEPKPQEPTKHQYDWDAATAANFLRKYGLIDEFKLNIECNHATLSGHTCHHELETARINGLLGNIDANTGDAQTGWDTDQFLTDVGEATMVMMSVIKNGGIAPGGFNFDAKLRRESTDVEDLFIAHISGMDTMARGLRNAVKILEEGSLSELVRKRYATWDSELGKQIEEGKADFEYLEKKAKEFGEPKVSSAKQELAEMIFQSAM
Active? (yes/no): No

B5: Burkholderia xenovorans: xylose isomerase of this donor organism expressed in S. cerevisiae (protein, UniProt Q13RB8 1-440, looked up)
Xylose isomerase: MSYFEHIPEIRYEGPQSDNPLAYRHYDKSKKVLGKTLEEHLRIAVCYWHTFVWPGVDIFGQGTFRRPWQQAGDAMERARQKADSAFEFFSKLGTPYYTFHDTDVSPEGSSLKEYSENFLRITDYLARKQEDTGIKLLWGTANLFSHPRYAAGAATSPDPEVFAFAATQVRHALDATQRLGGDNYVLWGGREGYDTLLNTDLMRERDQLARFLHMVVDHAHKIGFKGSLLIEPKPQEPTKHQYDYDVATVHGFLLQHGLEKEIRVNIEANHATLAGHSFHHEIATAYALGIFGSVDANRGDPQNGWDTDQFPNSVEELTLAFYEILKHGGFTTGGMNFDSKVRRQSVDPEDLFYGHIGAIDNLALAVERAAVLIENDRLDQFKRQRYAGWDADFGRKILSGDYSLSTLATDALARGLNPQHASGHQELMENIVNQAIYSGR
Active? (yes/no): No

B6: Bacillus licheniformis: xylose isomerase of this donor organism expressed in S. cerevisiae (protein, UniProt P77832 1-448, looked up)
Xylose isomerase: MFFRNIGMIEYEGADSENPYAFKYYNPDEFVGGKTMKEHLRFAVAYWHTFDADGKDPFGDGTMFRAWNRLTHPLDKAKARAEAAFEFFEKLGVPYFCFHDVDIVDEGATLRETFTYLDQMSSFLKEMMETSHVQLLWNTANMFTHPRYVHGAATSCNADVYAYAAAKVKKGLDIAKELGAENYVFWGGREGYETLLNTDMKLELENLSSFYRMAVEYAREIGFDGQFLIEPKPKEPTKHQYDFDAATTIAFLETYGLKDHFKLNLEANHATLAGHTFEHELRVAALHDMLGSIDANQGDLLLGWDTDEFPTDLYSAVLAMYEILKAGGFKTGGINFDAKVRRPSFADEDLFHAHIAGMDTYAVGLKVASRLLEDKALDQVIEERYESYTKGIGLEIKEGRTDLKKLAAYALENDHIENQSGRQERLKATVNRYLLNALREAPAGKETH
Active? (yes/no): No

B7: Pseudomonas syringae: xylose isomerase of this donor organism expressed in S. cerevisiae (protein)
chain: MHPRVLEVTERLIARSRDTRQRYLQLIRGAASDGPMRGKLQCANFAHGVAACGPEDKQSLRLMNAANVAIVSSYNEMLSAHQPYEHFPAQIKQALRDIGSVGQFAGGVPAMCDGVTQGEPGMELAIASREVIAMSTAIALSHNMFDAAMMLGICDKIVPGLMMGALRFGHLPTIFVPGGPMVSGISNKEKADVRQRYAEGKASREELLDSEMKSYHGPGTCTFYGTANTNQLVMEVMGMHLPGASFVNPYTPLRDALTAEAARQVTRLTMQSGSFMPIGEIVDERSLVNSIVALHATGGSTNHTLHMPAIAQAAGIQLTWQDMADLSEVVP
Active? (yes/no): No

B8: Clostridium thermosulfurogenes: xylose isomerase of this donor organism expressed in S. cerevisiae (protein, UniProt P19148 1-439, looked up)
Xylose isomerase: MNKYFENVSKIKYEGPKSNNPYSFKFYNPEEVIDGKTMEEHLRFSIAYWHTFTADGTDQFGKATMQRPWNHYTDPMDIAKARVEAAFEFFDKINAPYFCFHDRDIAPEGDTLRETNKNLDTIVAMIKDYLKTSKTKVLWGTANLFSNPRFVHGASTSCNADVFAYSAAQVKKALEITKELGGENYVFWGGREGYETLLNTDMEFELDNFARFLHMAVDYAKEIGFEGQFLIEPKPKEPTKHQYDFDVANVLAFLRKYDLDKYFKVNIEANHATLAFHDFQHELRYARINGVLGSIDANTGDMLLGWDTDQFPTDIRMTTLAMYEVIKMGGFDKGGLNFDAKVRRASFEPEDLFLGHIAGMDAFAKGFKVAYKLVKDRVFDKFIEERYASYKDGIGADIVSGKADFRSLEKYALERSQIVNKSGRQELLESILNQYLFAE
Active? (yes/no): No

B9: Bacillus subtilis: xylose isomerase of this donor organism expressed in S. cerevisiae (protein, UniProt P0CI80 1-445, looked up)
Xylose isomerase: MAQSHSSSINYFGSANKVVYEGKDSTNPLAFKYYNPQEVIGGKTLKEHLRFSIAYWHTFTADGTDVFGAATMQRPWDHYKGMDLAKMRVEAAFEMFEKLDAPFFAFHDRDIAPEGSTLKETNQNLDMIMGMIKDYMRNSGVKLLWNTANMFTNPRFVHGAATSCNADVFAYAAAQVKKGLETAKELGAENYVFWGGREGYETLLNTDLKFELDNLARFMHMAVDYAKEIGYTGQFLIEPKPKEPTTHQYDTDAATTIAFLKQYGLDNHFKLNLEANHATLAGHTFEHELRMARVHGLLGSVDANQGHPLLGWDTDEFPTDLYSTTLAMYEILQNGGLGSGGLNFDAKVRRSSFEPDDLIYAHIAGMDAFARGLKVAHKLIEDRVFEDVIQHRYRSFTEGIGLEIIEGRANFHTLEQYALNHKSIKNESGRQEKLKAILNQYILEV
modifications: expressed in S. cerevisiae
Active? (yes/no): No
